In US20190092856A1 one finds pSTAT3 inhibition EC50 (A375 cells, 5 ng/ml hOSM) data, which are given here for one substance.

The target of the assay is human OSM (recombinant, mammalian-cell derived, OSMN1-1) (human) (UniProt P13725). Nature of the assay: cell-based or functional assay.
Chain of human OSM (recombinant, mammalian-cell derived, OSMN1-1) (human) (P13725 26-221 limits assumed): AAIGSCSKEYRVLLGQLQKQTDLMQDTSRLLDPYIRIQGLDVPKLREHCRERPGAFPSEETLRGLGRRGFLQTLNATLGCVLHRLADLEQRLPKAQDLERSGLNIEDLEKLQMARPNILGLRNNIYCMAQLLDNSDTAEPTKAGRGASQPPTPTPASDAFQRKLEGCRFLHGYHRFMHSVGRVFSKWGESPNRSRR

On to MAB295 (R&D Systems) (antibody), for which the pSTAT3 inhibition EC50 (A375 cells, 5 ng/ml hOSM) came to 72.1 ng/ml.
